The values that follow come from patent publication US20020028202A1 (Biogen, published 2002).

Residue numbers refer to the chain shown, from its start.

Holding throughout (experiment): staining of transfected COS-7 cells, FACS
The target in assay [1] is T1, human gc chain mutant, KEI replaced by Ala (Domain 1 Loop EF), myc-tagged, on COS-7 cells (human, UniProt P31785 23-369).
T1 construct: whole, on cells; not shown: 9 amino acid myc tag at the 5' end of the construct
T1 sequence (looked up): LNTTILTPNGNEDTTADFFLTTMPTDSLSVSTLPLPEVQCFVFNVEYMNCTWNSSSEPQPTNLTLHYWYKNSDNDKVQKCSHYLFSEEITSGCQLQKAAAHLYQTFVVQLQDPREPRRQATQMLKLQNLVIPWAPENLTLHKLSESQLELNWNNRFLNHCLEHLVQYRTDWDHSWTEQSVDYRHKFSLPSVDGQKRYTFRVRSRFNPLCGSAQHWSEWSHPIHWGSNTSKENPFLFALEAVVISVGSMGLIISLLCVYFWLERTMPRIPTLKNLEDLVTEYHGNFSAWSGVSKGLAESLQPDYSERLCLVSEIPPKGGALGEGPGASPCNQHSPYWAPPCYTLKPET
How it is done:
(§1) COS-7 cells are transiently transfected with 20 ug of DNA encoding the gc chain mutant or wildtype cDNA and 180 ug of herring sperm carrier DNA. After 2-3 days, COS-7 cells are harvested and analyzed by immnunofluorescent staining with anti-gc chain mAbs. MAbs are used at 10 ug/ml in PBS-1% BSA-0.02% sodium azide and allowed 30 minutes to bind to 1×10⁶ COS-7 cells. Cells are then washed 2 times, and bound mAb is detected with PE-conjugated goat anti-mouse Fc specific antibodies. The % of positive cells staining with the anti-gc chain mAb over an irrelevant control Ig is determined for a given gc chain mutant and for wildtype gc chain. […] Data are adjusted for any differences in level of expression of a mutant vs. wildtype constructs by measuring the binding of a mAb specific for a 9 amino acid myc tag engineered at the 5′ end of each gc chain construct. […] Values reduced from 100% indicate amino acid mutations which affect mAb binding.
(§2) The value “100%” indicates no effect of mutation and lower percentages indicate greater losses in binding as a result of the sequence change.

Assay [2] deals with T2, human gc chain mutant, LQN replaced by Ala (interdomain residues), myc-tagged, on COS-7 cells (human, UniProt P31785 23-369).
T2 construct: whole, on cells; not shown: 9 amino acid myc tag at the 5' end of the construct
T2 sequence (looked up): T1 sequence (looked up) with A98K, A99E, A100I, L126A, Q127A, N128A
The protocol:
as §1, §2

In assay [3] the target is T3, human gc chain mutant, NDK replaced by Ala (Domain 1 Loop CC), myc-tagged, on COS-7 cells (human, UniProt P31785 23-369).
T3 construct: whole, on cells; not shown: 9 amino acid myc tag at the 5' end of the construct
T3 sequence (looked up): T1 sequence (looked up) with N74A, D75A, K76A, A98K, A99E, A100I
How it is done:
as §1, §2

The target in assay [4] is T4, human gc chain mutant, FNV replaced by Ala (Domain 1 Loop AB), myc-tagged, on COS-7 cells (human, UniProt P31785 23-369).
T4 construct: whole, on cells; not shown: 9 amino acid myc tag at the 5' end of the construct
T4 sequence (looked up): T1 sequence (looked up) with F43A, N44A, V45A, A98K, A99E, A100I
How it is done: as §1, §2

The target in assay [5] is T5, human gc chain mutant, LEH replaced by Ala (Domain 2 Loop BC), myc-tagged, on COS-7 cells (human, UniProt P31785 23-369).
T5 construct: whole, on cells; not shown: 9 amino acid myc tag at the 5' end of the construct
T5 sequence (looked up): T1 sequence (looked up) with A98K, A99E, A100I, L161A, E162A, H163A
The protocol:
as §1, §2

B1: CP.B8 monoclonal antibody (murine anti-human gc chain, hybridoma ATCC HB-12107) (antibody, V domains shown)
VH: LQESGPGLVAPSQSLSITCTVSGFSLTSYGVHWVRQPPGKGLEWLGVIWAGGSTNYNSALMSRLNINRDNSKSQIFLKMNSLQTDDTAIYYCAREGSTVDSMDYWGQGTTVT
VL: DIVMTQSHKFMSTSVGDSITITCKASQDVTTAVAWYQQKPGQSPKLLIYWASTRHTGVPDRFTGSGSGTDYTLTISSVQAEDLALYYCQQHYITPWTFGGGTKLEI
notes: Used unconjugated and biotin-conjugated; also called CP.B8 mAb; mAb CP.B8
As for B1, the “% binding to mutant gc chain/wildtype gc chain” value in assay [1] came to 2%; in assay [2], 4%; in assay [3], 71%; in assay [4] it was 9%; in assay [5], 0%.
